The text below walks through data of US20220112276A1 (Janssen / Centocor, published 2022).

To fix the notation:
B1: 02B12R3 His-tagged VHH (VHH)
VHH: QVQLVESGGGWVQTGGSLRLSCAASGRTVSSYYMGWFRQTPGKEREFVAAISWVGSSTYKYYTDSAKGRFTISRDNAKNTVYLQMNSLKPEDTAVYYCAARPRVGDPRSRYDDDNWGQGTQVTVSS
B2: 02C10R3 His-tagged VHH (VHH)
VHH: EVQLVESGGGLVQPGGSLRLSCAASGFTFSSFTMTWFRQAPGKGLGWVSRISSDGTGTNYADSVKGRFTISRDNAKNTLYLRMNSLKPEDTAVYYCAIADDSSTRGQGTLVTVSS
B3: 01H10R3 His-tagged VHH (VHH)
VHH: QVQLVESGGGLVQAGGSLRLSCAASGRAFSQYTMGWFRQAPGKEREFVTAIRWSGGSIYKYYADSVKGRFTISGDNARNTVDLQMNSLKPEDTAVYYCAARMSPWGDPRGNEYDYWGQGTLVTVSS
B4: 01H10R2 His-tagged VHH (VHH)
VHH: QVQLVESGGGLVQPGGSLRLSCAASGRTSSISTMGWFRQAPGKEREFVTAIRWSGSSSYKYYADSVKGRFTISRDNARNTVYLQMNSLKPEDTAVYYCAAQMSLWRDPREIDYDYWGQGTLVTVSS
B5: 01C09R3LS VHH Mono-Fc (Fc fusion)
chain: EVQLVESGGGLVQAGGSLRLSCAASGRTINTYVMGWFRQAPGKEREFVARIDWSGSSTDYADSVKGRFTISRDNAKNTVYLQMNSLKPEDTAVYYCAGSAYYSGYVTHRDFGSWGQGTQVTVSSSPAPELLGGPSVFLFPPKPKDTLMISRTPEVTCVVVDVSHEDPEVKFNWYVDGVEVHNAKTKPREEQYNSTYRVVSVLTVLHQDWLNGKEYKCKVSNKALPAPIEKTISKAKGQPREPQVYTKPPSREEMTKNQVSLSCLVKGFYPSDIAVEWESNGQPENNYKTTVPVLDSDGSFRLASYLTVDKSRWQQGNVFSCSVMHEALHNHYTQKSLSLSPGK
B6: 01E09R3LS VHH Mono-Fc (Fc fusion)
chain: B5 chain with I70T, S85G, Q119L
B7: 01G10R3LS VHH Mono-Fc (Fc fusion)
chain: B5 chain with M34T
B8: 01D04R3LS VHH Mono-Fc (Fc fusion)
chain: EVQLVESGGGLVQAGGSLRLSCAASGRTFRSYAMGWFRQAPGKEREFVADISWRGGRLYYADSVKGRFTISRDNAKNTVYLQMNSLKPEDTAVYYCAATGDQPAFTTAQGMGAMLEYDYWGQGTLVTVSSSPAPELLGGPSVFLFPPKPKDTLMISRTPEVTCVVVDVSHEDPEVKFNWYVDGVEVHNAKTKPREEQYNSTYRVVSVLTVLHQDWLNGKEYKCKVSNKALPAPIEKTISKAKGQPREPQVYTKPPSREEMTKNQVSLSCLVKGFYPSDIAVEWESNGQPENNYKTTVPVLDSDGSFRLASYLTVDKSRWQQGNVFSCSVMHEALHNHYTQKSLSLSPGK
B9: 03A08R3 VHH Mono-Fc (Fc fusion)
chain: QVQLVESGGGLVQAGGSLRLSCAASGRTSSIYGMGWFRQAPGKEREFVAAISWSAGRTYHADSVKGRFTISRDNAKNMVYLQMDKMKPGDTAVYYCAARRAPELLSDYTQKPEEIGTYHYWGQGTLVTVSSSPAPELLGGPSVFLFPPKPKDTLMISRTPEVTCVVVDVSHEDPEVKFNWYVDGVEVHNAKTKPREEQYNSTYRVVSVLTVLHQDWLNGKEYKCKVSNKALPAPIEKTISKAKGQPREPQVYTKPPSREEMTKNQVSLSCLVKGFYPSDIAVEWESNGQPENNYKTTVPVLDSDGSFRLASYLTVDKSRWQQGNVFSCSVMHEALHNHYTQKSLSLSPGK
B10: 01C02R2 VHH Mono-Fc (Fc fusion)
chain: EVQLVESGGGLVQAGGSLRLSCAASGRSYAMGWFRQAPGKEREFAAAISWSGSRTYYADAVKGRFTISRDNAKNTVYLQMNSLKPEDTAVYYCAADPDGTVVASSGWTNSYEYGYWGQGTLVTVSSSPAPELLGGPSVFLFPPKPKDTLMISRTPEVTCVVVDVSHEDPEVKFNWYVDGVEVHNAKTKPREEQYNSTYRVVSVLTVLHQDWLNGKEYKCKVSNKALPAPIEKTISKAKGQPREPQVYTKPPSREEMTKNQVSLSCLVKGFYPSDIAVEWESNGQPENNYKTTVPVLDSDGSFRLASYLTVDKSRWQQGNVFSCSVMHEALHNHYTQKSLSLSPGK
B11: 01D09R3 VHH Mono-Fc (Fc fusion)
chain: QVQLVESGGGLVQAGGSLRLSCAASGRTFSVYAMGWFRQAPGKERQFVAAITWSGGSTSYADSVKGRFTISRDNAKNTVYLQMNILKPEDTAVYYCAAATNPYFSDYYPDLKYEFDYWGQGTLVTVSSSPAPELLGGPSVFLFPPKPKDTLMISRTPEVTCVVVDVSHEDPEVKFNWYVDGVEVHNAKTKPREEQYNSTYRVVSVLTVLHQDWLNGKEYKCKVSNKALPAPIEKTISKAKGQPREPQVYTKPPSREEMTKNQVSLSCLVKGFYPSDIAVEWESNGQPENNYKTTVPVLDSDGSFRLASYLTVDKSRWQQGNVFSCSVMHEALHNHYTQKSLSLSPGK
B12: 02C10R3 VHH Mono-Fc (Fc fusion)
chain: EVQLVESGGGLVQPGGSLRLSCAASGFTFSSFTMTWFRQAPGKGLGWVSRISSDGTGTNYADSVKGRFTISRDNAKNTLYLRMNSLKPEDTAVYYCAIADDSSTRGQGTLVTVSSSPAPELLGGPSVFLFPPKPKDTLMISRTPEVTCVVVDVSHEDPEVKFNWYVDGVEVHNAKTKPREEQYNSTYRVVSVLTVLHQDWLNGKEYKCKVSNKALPAPIEKTISKAKGQPREPQVYTKPPSREEMTKNQVSLSCLVKGFYPSDIAVEWESNGQPENNYKTTVPVLDSDGSFRLASYLTVDKSRWQQGNVFSCSVMHEALHNHYTQKSLSLSPGK
B13: 01F03R3LS VHH Mono-Fc (Fc fusion)
chain: B5 chain with T31G, K43E, N77I, Q119L
B14: 02G04R3 VHH Mono-Fc (Fc fusion)
chain: QVQLVESGGGLVQAGGSLRLSCAANGRAANAYAVGWFRQAPGKEREFVAHIRWNGGRTAYADSVKGRFTISRDDAKNTVYLQMDSLKPEDTAVYYCAEDTNPDAFGDLRLPSEYEYWGQGTQVTVSSSPAPELLGGPSVFLFPPKPKDTLMISRTPEVTCVVVDVSHEDPEVKFNWYVDGVEVHNAKTKPREEQYNSTYRVVSVLTVLHQDWLNGKEYKCKVSNKALPAPIEKTISKAKGQPREPQVYTKPPSREEMTKNQVSLSCLVKGFYPSDIAVEWESNGQPENNYKTTVPVLDSDGSFRLASYLTVDKSRWQQGNVFSCSVMHEALHNHYTQKSLSLSPGK
B15: 01B04R2 VHH Mono-Fc (Fc fusion)
chain: EVQLVESGGGLVQAGGSLRLSCAASGRTFTSYTMGWFRQAPGKEREFVAAIKWNGGSTYYADSVKGRFTISRDNAKNTVYLQMNSLKPEDTAVYYCAADGDPYFSPTDGIVWHAPHQSEYDYWGQGTLVTVSSSPAPELLGGPSVFLFPPKPKDTLMISRTPEVTCVVVDVSHEDPEVKFNWYVDGVEVHNAKTKPREEQYNSTYRVVSVLTVLHQDWLNGKEYKCKVSNKALPAPIEKTISKAKGQPREPQVYTKPPSREEMTKNQVSLSCLVKGFYPSDIAVEWESNGQPENNYKTTVPVLDSDGSFRLASYLTVDKSRWQQGNVFSCSVMHEALHNHYTQKSLSLSPGK
B16: 03H01R3 VHH Mono-Fc (Fc fusion)
chain: EVQLVESGGGLVQAGGSLRLSCAASGRTSSIYNMGWFRQAPGQEREFVAAIHWGGGRTYYADSVKGRFTISRDNAKNTVYLQMNSLEPGDTANYYCAARRAPELLDDYKQKPEEIGTYHYWGQGTQVTVSSSPAPELLGGPSVFLFPPKPKDTLMISRTPEVTCVVVDVSHEDPEVKFNWYVDGVEVHNAKTKPREEQYNSTYRVVSVLTVLHQDWLNGKEYKCKVSNKALPAPIEKTISKAKGQPREPQVYTKPPSREEMTKNQVSLSCLVKGFYPSDIAVEWESNGQPENNYKTTVPVLDSDGSFRLASYLTVDKSRWQQGNVFSCSVMHEALHNHYTQKSLSLSPGK

Positions count from the first letter of the chain named.

T1 sequence (P01833 19-638 limits assumed): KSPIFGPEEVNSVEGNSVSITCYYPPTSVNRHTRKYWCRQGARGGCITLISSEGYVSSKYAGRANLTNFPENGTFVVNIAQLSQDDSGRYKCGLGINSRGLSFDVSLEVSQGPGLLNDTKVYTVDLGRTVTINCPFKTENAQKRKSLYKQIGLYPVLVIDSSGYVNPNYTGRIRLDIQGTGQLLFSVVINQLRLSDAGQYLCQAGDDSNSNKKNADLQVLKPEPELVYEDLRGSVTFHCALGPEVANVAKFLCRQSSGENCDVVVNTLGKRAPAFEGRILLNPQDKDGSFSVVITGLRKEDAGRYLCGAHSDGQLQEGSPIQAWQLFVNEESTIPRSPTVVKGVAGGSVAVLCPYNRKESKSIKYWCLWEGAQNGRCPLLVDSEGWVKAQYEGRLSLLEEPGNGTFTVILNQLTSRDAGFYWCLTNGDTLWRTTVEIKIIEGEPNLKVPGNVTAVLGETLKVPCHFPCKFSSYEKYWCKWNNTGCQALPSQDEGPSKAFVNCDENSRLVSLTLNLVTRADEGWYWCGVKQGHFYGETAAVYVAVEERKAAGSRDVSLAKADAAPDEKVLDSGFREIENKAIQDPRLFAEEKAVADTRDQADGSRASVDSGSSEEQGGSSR
T3 sequence (P01833 other isoform, or with tags, fused parts or gaps): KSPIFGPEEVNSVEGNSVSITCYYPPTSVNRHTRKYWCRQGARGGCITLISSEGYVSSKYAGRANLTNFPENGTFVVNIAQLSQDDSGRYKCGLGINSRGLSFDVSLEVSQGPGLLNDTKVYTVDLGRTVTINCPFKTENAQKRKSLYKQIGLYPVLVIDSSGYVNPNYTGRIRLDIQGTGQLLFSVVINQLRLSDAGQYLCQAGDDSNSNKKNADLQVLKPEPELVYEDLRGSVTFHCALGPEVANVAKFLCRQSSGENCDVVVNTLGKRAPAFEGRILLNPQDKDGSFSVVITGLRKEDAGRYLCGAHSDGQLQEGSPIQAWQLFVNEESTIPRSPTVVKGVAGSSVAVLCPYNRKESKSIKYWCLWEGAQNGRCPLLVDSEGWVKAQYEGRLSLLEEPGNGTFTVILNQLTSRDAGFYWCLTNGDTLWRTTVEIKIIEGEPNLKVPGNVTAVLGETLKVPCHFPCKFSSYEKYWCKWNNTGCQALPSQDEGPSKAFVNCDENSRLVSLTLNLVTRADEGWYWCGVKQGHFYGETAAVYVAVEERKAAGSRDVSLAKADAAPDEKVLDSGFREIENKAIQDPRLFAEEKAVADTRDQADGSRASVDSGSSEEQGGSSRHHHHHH

The first assay addresses T1, recombinant human pIgR (hpIgR) (human, UniProt P01833 19-638, limits assumed).
T1 construct: probably the ECD
The assay is described as follows: ELISA, periplasmic VHH, BSA subtracted. The method in brief:
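His-tagged VHH in periplasmic extracts (osmotic shock, non-suppressor E. coli) were tested by ELISA for binding to pIgR. Bound nanobody was detected with polyclonal anti-alpaca VHH antibody in the initial screen and anti-VHH antibody on retest. Signal on BSA, run in parallel, was subtracted from the pIgR signal.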
Consider B1, for which the “ELISA (OD)” value worked out at 2.38 OD. Same read-out and setting: the value for B2 was 2.05 OD; that for B3 was 1.54 OD; that for B4 was 1.83 OD.

In a further assay the target is T2, cynomolgus monkey pIgR extracellular domain (cynomolgus monkey, UniProt A0A2K5WMU9 19-638).
T2 construct: extracellular domain
T2 sequence (A0A2K5WMU9 entry or part of it): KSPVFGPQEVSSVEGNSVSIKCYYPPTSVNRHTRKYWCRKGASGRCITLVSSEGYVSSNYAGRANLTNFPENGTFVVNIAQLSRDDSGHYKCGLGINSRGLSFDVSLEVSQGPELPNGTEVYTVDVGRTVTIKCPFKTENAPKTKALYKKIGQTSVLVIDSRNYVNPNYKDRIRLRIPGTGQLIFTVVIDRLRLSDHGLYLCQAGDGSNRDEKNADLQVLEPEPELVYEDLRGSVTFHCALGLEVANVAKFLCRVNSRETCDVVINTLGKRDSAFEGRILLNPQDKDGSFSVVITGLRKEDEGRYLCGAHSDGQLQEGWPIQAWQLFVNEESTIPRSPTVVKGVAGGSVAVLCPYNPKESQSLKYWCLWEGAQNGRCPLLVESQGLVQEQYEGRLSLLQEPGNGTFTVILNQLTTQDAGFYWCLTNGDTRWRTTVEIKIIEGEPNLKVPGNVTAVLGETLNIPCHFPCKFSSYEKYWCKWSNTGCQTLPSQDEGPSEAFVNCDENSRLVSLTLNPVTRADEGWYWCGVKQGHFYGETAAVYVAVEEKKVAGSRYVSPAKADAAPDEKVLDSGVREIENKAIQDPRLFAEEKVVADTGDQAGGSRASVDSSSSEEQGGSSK
The assay is described as follows: SPR, VHH captured by anti-Fc, ECD analyte. The procedure: (§1) In an assay, two flow cells of the SPR were used, in which the flow cell 1 ran the buffer reference, and the flow cell 2 ran the analyte. […] The HBSP (GE) buffer was followed at a flow rate of 30 μL/min. Then, the VHHs were captured on the anti-human Fc protein surface at 0.5 ug/ml (˜200-300 RU) on the flow cell 2. The running buffer was changed to HBSP with 100 ug/ml BSA after the capture. Next, the pIgR extracellular domains were used as analyte and loaded in a series of concentrations, starting at 30 nM with further 3-fold dilution series.
(§2) The extracellular domains were prepared as follows: cynomolgus monkey and rat extracellular domains were produced and characterized in house; mouse and human pIgR extracellular domains were purchased from R&D Systems (Cat #2800-PG-050 & 2717-PG-050 respectively). The pIgR extracellular domains were injected from low to high concentration using a single-cycle kinetics method. The off-rate was monitored at 30 minutes after the last or highest concentration injection. The reference run was completed under the same conditions except that the pIgR injection was replaced by buffer injection.
(§3) The raw data were processed by subtracting two sets of reference data from the response data: (1) reference flow cell 1 subtracted from sample flow cell 2; and (2) buffer blank run subtracted from experimental run. The processed data at all concentrations for each VHH were globally fit to a 1:1 simple Langmuir binding model to extract estimates of the kinetic constants (kₒₙ, koff) and affinity constants (KD).
B5 registered a Kd of 93.7 nM. For B6, the Kd was 135 nM. As to B7, the Kd came to 287 nM.

A further assay has as its target T3, human pIgR extracellular domain (ECD) (human, UniProt P01833 19-638).
T3 construct: Bought from R&D Systems (Cat 2717-PG-050); also called hpIgR ECD
The assay is described as follows: SPR, VHH captured by anti-Fc, ECD analyte. The procedure:
as §1, §2, §3
In turn, B8 registered a dissociation constant Kd of 1.16 nM.

B9 had an equilibrium dissociation constant (Kd) of 1.97 nM. On the same count and under the same terms, the value for B10 was 0.275 nM; that for B11 was 2.76 nM; that for B12 was 2.09 nM. Still for that read-out and setting: the value for B5 was 6.92 nM; that for B6 was 8.39 nM; that for B13 was 10.9 nM. The molecule B7 gave a Kd of 18.5 nM. The molecule B14 registered a Kd of 1.29 nM.

B15 displayed a Kd of 16.8 nM. The same measure, in the same setting: as for B16, the figure is 0.15 nM.
